Test results published in patent publication US20230357364A1 (INTERNATIONAL AIDS VACCINE INITIATIVE, published 2023).
Changes are numbered by the printed parent chain. Like-named read-outs stand apart in the source and are kept apart here.

B1: L12.bP11A11 (antibody, V domains shown)
VH: QVQLVQSGAEVKKPGASVKVSCKASGYTFTGYYMHWVRQAPGQGLEWMGWISPNSGGTNYAQKFQGWVTMTRDTSVSTAYMELSRLRFDDTAVYYCATESWVYGSGSYSSGAFDIWGQGTMVTVSS
VL: QSVLTQPPSASGSPGQSVTISCTGTSSDVGGYDYVSWYQQHPGKAPKLMIYEVSKRPSGVPDRFSGSKSGNTASLTVPGLQAEDEADYYCTSYAGSNNFVFGGGTKLIVL
notes: human IgG1
B2: L6.dP04A03 (antibody, V domains shown)
VH: QVQLVQSGAEVKKPGSSVKVSCKASGGTFSSSAISWVRQAPGQGLEWMGGIIPILDITNYAQKFQGRVTITADKSTSTAFMELSSLRSEDTAVYYCALRNQWDLLVYWGQGTLVTVSS
VL: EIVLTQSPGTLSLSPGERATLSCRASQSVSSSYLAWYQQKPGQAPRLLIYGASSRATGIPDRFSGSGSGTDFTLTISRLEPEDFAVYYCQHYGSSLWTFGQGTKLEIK
B3: L6.P4A3.1 (antibody, V domains shown)
VH: B2 VH with T28I, T58S, R99T
VL: EIVLTQSPGTLSLSPGERATLSCRASQRVSSSYLAWYQQKPGQAPRLLIYGAESRATGIPDRFSGSGSGTDFTLTISRLEPEDFAVYYCQHYGSSLWTFGQGTKLEIK
B4: L12.bP11G07 (antibody, V domains shown)
VH: QVQLVESGGGLIQPGGSLRLSCAASGFTVSSNYMSWVRQAPGKGLEWVSVIYSGGSTFYADSVKGRFTISRDNSKSTLYLQMNSLRVEDTAVYYCARDFGDFYFDYWGQGTLVTVSS
VL: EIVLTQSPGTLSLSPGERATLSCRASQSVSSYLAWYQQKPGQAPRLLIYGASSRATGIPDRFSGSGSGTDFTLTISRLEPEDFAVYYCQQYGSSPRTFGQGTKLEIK
notes: human IgG1
B5: L12.bP12H09 (antibody, V domains shown)
VH: QVQLVQSGAEVKKPGASVKVSCKASGYIFSGYYTHWVRQAPGQGLEWMGWISPDSGGTNYAQKFQGRVTMTRDTSITTAYVELSGLRSDDTAVYYCARGPRYSGTYFDYWGQGTLVTVSS
VL: QSALTQPASVSGSPGQSITISCTGTSSDVGGYNHVSWYQQHPGKAPKLMIYDVSNRPSGVSNRFSGSKSGNTASLTISGLQAEDEADYYCSSYTSSSAQLFGGGTKLTVL
notes: human IgG1
B6: L12.cP08D10 (antibody, V domains shown)
VH: B5 VH with Q1E, T34M, K63N, T77S, A79G, V81M, G85R, V93M, T114V
VL: B5 VL with A3V, H34Y, A45V, L100V
notes: human IgG1
B7: L12.cP09C07 (antibody, V domains shown)
VH: B5 VH with F29Y, Y33F, T34M, T58A, K63T, I76T, Y80H, V81M, G85R, Y106H
VL: B5 VL with I18L, H34Y, G43D, S54N, N71S, T94A, S95G, A98T, L100V, T108I
notes: human IgG1
B8: L12.bP13A12 (antibody, V domains shown)
VH: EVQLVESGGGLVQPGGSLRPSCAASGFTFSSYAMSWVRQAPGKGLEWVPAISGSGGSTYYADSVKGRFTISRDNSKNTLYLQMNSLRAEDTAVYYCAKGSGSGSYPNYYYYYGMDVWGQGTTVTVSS
VL: SYELTQSPSVSVAPGQTARITCGGNNIGSKSVHWYQRKPGQAPVLVVYDDSDRPSGIPERFSGSNSGNTATLTISRVEAGDEADYYCQVWDNNSDHLVFGGGTKLTVL
B9: L6.dP03H10 (antibody, V domains shown)
VH: QVQLVQSGAEVKKPGSSVKVSCKASGGTFSIYAITWVRQAPGQGLEWMGGIIPIIGTANYAQKFQGRVTITADKSTSTAYMELSSLRSEDTAVYYCARDFRYCSSTRCYFWFDPWGQGTLVTVSS
VL: DIQMTQSPSSLSASVGDRVTITCRASQNISSYLNWYQQEAGKAPKLLIYAASSLQSGVPSRFSGSGSGTDFTLTISSLQPEDFATYYCQQSYSTPRTFGQGTKVDIK
B10: L6.dP02E05 (antibody, V domains shown)
VH: QVQLVQSGSELKKPGASVKVSCKASGYTFATYALNWVRQAPGQGLEWMGWVNTNTGSPTYAQGFTGRFVFSFDTSVSTAYLQIRTLKAEDTAVYYCAVYYYDSGSPGWFDPWGQGTLVTVSS
VL: B9 VL with M4L, N28T, I29A, E39K, A40P, K45N, G68V, R96P
notes: human IgG1
B11: L12.cP07E10 (antibody, V domains shown)
VH: EVQLVESGGGLIQPGGSLRLSCAASGFTVSSNYMSWVRQAPGKGLEWVSVIYSGGSTYYADSVKGRFTISRDNSKNTLYLQMNSLRAEDTAVYYCARDPYGYSSIWDGQGGHWGQGTLVTVSS
VL: DVVMTQSPSSLSASVGDRVTITCQASQDISNYLNWYQQKPGKAPKLLIYDASNFATGVPSRFSGTGSGTDFTFTISSLQPEDIATYYCQQYDNLPITFGQGTRLEIK
notes: human IgG1
B12: L12.cP09D05 (antibody, V domains shown)
VH: QVQLVESGGGLVKPGGSLRLSCAASGFTFNYYSMNWVRQAPGKGLEWISSISTSSSFVYYADSVKGRFTISRDNAKTSLYLQMNSLRAEDTAVYFCARGGYCSDGSCYVQDRLIYYYSGLDVWGQGTTVTVSS
VL: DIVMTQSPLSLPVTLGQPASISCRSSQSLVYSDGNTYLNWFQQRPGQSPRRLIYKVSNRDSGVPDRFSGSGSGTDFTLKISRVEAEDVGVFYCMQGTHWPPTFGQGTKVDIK
notes: human IgG1

Experiments:
SARS-CoV-2 RBD (RBD-2) [1] = target: SARS-CoV-2 RBD (RBD-2) (SARS-CoV-2); assay: flow, HeLa-ACE2, mAb:RBD=2:1
SARS-CoV-2 RBD (RBD-2) [2] = target: SARS-CoV-2 RBD (RBD-2) (SARS-CoV-2); assay: SPR, Fc-captured IgG
SARS-CoV-2 RBD (RBD-2) [3] = target: SARS-CoV-2 RBD (RBD-2) (SARS-CoV-2); assay: flow, HeLa-ACE2, mAb:RBD=4:1
SARS-CoV-2 RBD (RBD-2) [4] = target: SARS-CoV-2 RBD (RBD-2) (SARS-CoV-2); assay: ELISA
SARS-CoV-1 RBD (RBD-1) = SARS-CoV-1 RBD (RBD-1) (SARS-CoV-1); assay: ELISA
[5] = target: T1, SARS-CoV-2 spike on pseudovirus or live virus (USA-WA1/2020, WT) (SARS-CoV-2, UniProt P0DTC2 14-1273); assay: cell-based or functional assay
[6] = target: T2, SARS-CoV-1 spike on pseudovirus (SARS-CoV-1, UniProt P59594 14-1255); assay: cell-based or functional assay
[7] = target: T1, SARS-CoV-2 spike on pseudovirus or live …; assay: cell-based or functional assay; remark: listed apart in the source
[8] = target: T2, SARS-CoV-1 spike on pseudovirus; assay: cell-based or functional assay; remark: listed apart in the source
SARS-CoV-2 RBD (RBD-2) [9] = target: SARS-CoV-2 RBD (RBD-2) (SARS-CoV-2); assay: SPR
[10] = target: T1, SARS-CoV-2 spike on pseudovirus or live …; assay: cell-based or functional assay; remark: listed apart in the source
[11] = target: T1, SARS-CoV-2 spike on pseudovirus or live …; assay: cell-based or functional assay; remark: listed apart in the source
[12] = target: T2, SARS-CoV-1 spike on pseudovirus; assay: cell-based or functional assay; remark: listed apart in the source

Binder	% inhibition of RBD binding to hACE2 (SARS-CoV-2 RBD (RBD-2) [1]) [%]	MFI (RBD binding to cell surface) (SARS-CoV-2 RBD (RBD-2) [1])	Kd (SARS-CoV-2 RBD (RBD-2) [2]) [nM]	koff (SARS-CoV-2 RBD (RBD-2) [2]) [s⁻¹]	kon (SARS-CoV-2 RBD (RBD-2) [2]) [M⁻¹ s⁻¹]	% inhibition of RBD binding to hACE2 (SARS-CoV-2 RBD (RBD-2) [3]) [%]	MFI (RBD binding to cell surface) (SARS-CoV-2 RBD (RBD-2) [3])	EC50 (SARS-CoV-2 RBD (RBD-2) [4]) [µg/mL]	EC50 (SARS-CoV-1 RBD (RBD-1)) [µg/mL]	PSV neutralization IC50 [5] [µg/mL]	PSV neutralization IC50 [6] [µg/mL]	Maximum Plateau of Neutralization [7] [%]	PSV neutralization IC50 [7] [µg/mL]	PSV neutralization IC50 [8] [µg/mL]	Kd (SARS-CoV-2 RBD (RBD-2) [9]) [nM]	neutralization IC50 [10] [ng/mL]	PSV in HeLa-ACE2 cells IC50 [11] [ng/mL]	live virus IC50 (HeLa-ACE2) [11] [ng/mL]	live virus IC50 (Vero) [11] [ng/mL]	PSV in HeLa-ACE2 cells IC50 [12] [µg/mL]
B1	43.6	6330	170	0.066	388000	53.9	5190	1.9	> 50	0.016	> 50	100	0.11	> 50	–	–	–	–	–	–
B2	–	–	–	–	–	–	–	–	0.915	–	–	100	0.039	0.162	257	168	–	–	–	–
B3	–	–	–	–	–	–	–	–	–	–	–	–	–	–	–	–	5	8	1	0.049
B4	86.8	1550	8.59	0.00342	399000	91.9	982	0.025	> 50	0.013	> 50	100	0.018	> 50	–	–	–	–	–	–
B5	41.6	6560	155	0.12	773000	54.7	5100	0.483	> 50	0.062	> 50	100	0.106	> 50	–	–	–	–	–	–
B6	6.1	10500	> 500	0.312	59400	13.2	9710	> 50	> 50	4.3	> 50	60	23.5	> 50	–	–	–	–	–	–
B7	54.5	5130	87.9	0.0691	786000	64.3	4040	0.16	> 50	0.085	> 50	95	–	> 50	–	–	–	–	–	–
B8	-44.2	16100	26	0.0115	443000	-46.7	16400	0.019	> 50	0.051	> 50	50	> 50	> 50	–	–	–	–	–	–
B9	–	–	–	–	–	–	–	0.012	> 50	–	–	100	0.001	> 50	5.9	1.7	–	–	–	–
B10	–	–	–	–	–	–	–	0.015	> 50	–	–	100	0.002	> 50	–	7.5	–	–	–	–
B11	98.6	237	2.6	0.000364	140000	99.1	178	0.058	> 50	0.029	> 50	100	0.1	> 50	–	–	–	–	–	–
B12	75.4	2810	36.2	0.0157	435000	80.6	2230	0.039	> 50	0.008	> 50	100	0.023	> 50	–	–	–	–	–	–
